Measured values published in patent US20210107998A1 (Boehringer Ingelheim, published 2021).
Residue numbers refer to the chain shown, from its start.

B1: Compound O (bispecific antibody, human IgG1, kappa, L234A L235A)
chain 1: DIQMTQSPSSLSASVGDRVSITCKASQNAGIDVAWFQQKPGKAPKLLIYSKSNRYTGVPSRFSGSGSGTDFTLTISSLQPEDFADYYCLQYRSYPRTFGGGTKLEIKGGGSGGGGQVQLVQSGAEVKKPGSSVKVSCKASGYTFTDQTIHWMRQAPGQGLEWIGYIYPRDDSPKYNENFKGKVTITADKSTSTAYMELSSLRSEDTAVYYCAIPDRSGYAWFIYWGQGTLVTVSSLGGGSGASTKGPSVFPLAPSSKSTSGGTAALGCLVKDYFPEPVTVSWNSGALTSGVHTFPAVLQSSGLYSLSSVVTVPSSSLGTQTYICNVNHKPSNTKVDKRVEPKSCDKTHTCPPCPAPEAAGGPSVFLFPPKPKDTLYITREPEVTCVVVDVSHEDPEVKFNWYVDGVEVHNAKTKPREEQYNSTYRVVSVLTVLHQDWLNGKEYKCKVSNKALPAPIEKTISKAKGQPREPQVYTLPPSREEMTKNQVSLTCLVKGFYPSDIAVEWESNGQPENNYKTTPPVLDSDGSFFLYSKLTVDKSRWQQGNVFSCSVMHEALHNHYTQKSLSLSPG
chain 2: DIQMTQSPSSLSASVGDRVTITCKASRDVAIAVAWYQQKPGKVPKLLIYWASTRHTGVPSRFSGSGSRTDFTLTISSLQPEDVADYFCHQYSSYPFTFGSGTKLEIKGGGSGGGGQVQLVQSGAEVKKPGASVKVSCKASGYSFSTFFIHWVRQRPGQGLEWIGRIDPNSGATKYNEKFESKVTLTRDTSISTAYMELSRLRSDDTAVYYCARGEDLLIRTDALDYWGQGTSVTVSSLGGGSGRTVAAPSVFIFPPSDEQLKSGTASVVCLLNNFYPREAKVQWKVDNALQSGNSQESVTEQDSKDSTYSLSSTLTLSKADYEKHKVYACEVTHQGLSSPVTKSFNRGEC
B2: Compound P (bispecific antibody, human IgG4 S228P, kappa)
chain 1: DIQMTQSPSSLSASVGDRVSITCKASQNAGIDVAWFQQKPGKAPKLLIYSKSNRYTGVPSRFSGSGSGTDFTLTISSLQPEDFADYYCLQYRSYPRTFGGGTKLEIKGGGSGGGGQVQLVQSGAEVKKPGSSVKVSCKASGYTFTDQTIHWMRQAPGQGLEWIGYIYPRDDSPKYNENFKGKVTITADKSTSTAYMELSSLRSEDTAVYYCAIPDRSGYAWFIYWGQGTLVTVSSLGGGSGASTKGPSVFPLAPCSRSTSESTAALGCLVKDYFPEPVTVSWNSGALTSGVHTFPAVLQSSGLYSLSSVVTVPSSSLGTKTYTCNVDHKPSNTKVDKRVESKYGPPCPPCPAPEFLGGPSVFLFPPKPKDTLYITREPEVTCVVVDVSQEDPEVQFNWYVDGVEVHNAKTKPREEQFNSTYRVVSVLTVLHQDWLNGKEYKCKVSNKGLPSSIEKTISKAKGQPREPQVYTLPPSQEEMTKNQVSLTCLVKGFYPSDIAVEWESNGQPENNYKTTPPVLDSDGSFFLYSRLTVDKSRWQEGNVFSCSVMHEALHNHYTQKSLSLSLG
chain 2: B1 chain 2
B3: Compound Q (bispecific antibody, human IgG1, kappa, L234A L235A)
chain 1: B1 chain 1 with D85T, G100Q
chain 2: B1 chain 2 with R155A, K182R, L185M

These binders were tested against Recombinant human BAFF 60mer (Boehringer Ingelheim Pharmaceuticals, Inc.) (human, UniProt Q9Y275 134-285, limits assumed) (assay: cell-based or functional assay).

IC50, NFkB luciferase reporter, human BAFFR-CHO cells [nM]	IC90, NFkB luciferase reporter, human BAFFR-CHO cells [nM]	Binder
0.005	0.006	B1
0.002	0.009	B2
0.005	0.013	B3

These binders were tested against Recombinant human BAFF trimer (Boehringer Ingelheim Pharmaceuticals, Inc.) (human, UniProt Q9Y275 134-285, limits assumed) (assay: cell-based or functional assay).

IC50, NFkB luciferase reporter, human BAFFR-CHO cells [nM]	IC90, NFkB luciferase reporter, human BAFFR-CHO cells [nM]	Binder
0.027	0.119	B1
0.019	0.088	B2
0.026	0.108	B3
